Results reported in patent US10800813 (Bicycle, dated 2020).
Numbered stars: 1 amine (or outer) side, 2 acyl side, 3 side chain; on linkers, the order of the positions; unused ones are H or OH. Bridge positions count the residues as written; N and C are the ends. Square brackets hold non-standard residues; d marks the D form. Ends that are not written are not given here. Phe(4-guanidino) = N=C(N)Nc1ccc(C[C@H](N)C(=O)O)cc1; NMeW = CN[C@@H](Cc1c[nH]c2ccccc12)C(=O)O; TBMB = c1c(C[*:1])cc(C[*:3])cc1C[*:2]; NMeR = CN[C@@H](CCCNC(=N)N)C(=O)O; hArg = N=C(N)NCCCC[C@H](N)C(=O)O; β3hR = N=C(N)NCCC[C@H](N)CC(=O)O; Cit = NC(=O)NCCC[C@H](N)C(=O)O; Agb = N=C(N)NCC[C@H](N)C(=O)O; Agp = N=C(N)NC[C@H](N)C(=O)O; NMeC = CN[C@@H](CS)C(=O)O; NMeA = CN[C@@H](C)C(=O)O; Aze = O=C(O)[C@@H]1CCN1

B1: Ac-(06-34-18) D-Trp2 (peptide)
peptide: Ac-CS[dW]PARCLHQDLC-NH2
modifications: linker 1-7-13 via TBMB
SMILES: CC(=O)N[C@H]1CSCc2cc3cc(c2)CSC[C@H](NC(=O)[C@H](CCCNC(=N)N)NC(=O)[C@H](C)NC(=O)[C@@H]2CCCN2C(=O)[C@@H](Cc2c[nH]c4ccccc24)NC(=O)[C@H](CO)NC1=O)C(=O)N[C@@H](CC(C)C)C(=O)N[C@@H](Cc1c[nH]cn1)C(=O)N[C@@H](CCC(N)=O)C(=O)N[C@@H](CC(=O)O)C(=O)N[C@@H](CC(C)C)C(=O)N[C@H](C(N)=O)CSC3
B2: Ac-(06-34-18) D-Ala4 (peptide)
peptide: Ac-CSWP[dA]RCLHQDLC-NH2
modifications: linker 1-7-13 via TBMB
SMILES: CC(=O)N[C@H]1CSCc2cc3cc(c2)CSC[C@H](NC(=O)[C@H](CCCNC(=N)N)NC(=O)[C@@H](C)NC(=O)[C@@H]2CCCN2C(=O)[C@H](Cc2c[nH]c4ccccc24)NC(=O)[C@H](CO)NC1=O)C(=O)N[C@@H](CC(C)C)C(=O)N[C@@H](Cc1c[nH]cn1)C(=O)N[C@@H](CCC(N)=O)C(=O)N[C@@H](CC(=O)O)C(=O)N[C@@H](CC(C)C)C(=O)N[C@H](C(N)=O)CSC3
B3: Ac-(06-34-18) D-Cys2 (peptide)
peptide: Ac-CSWPAR[dC]LHQDLC-NH2
modifications: linker 1-7-13 via TBMB
SMILES: CC(=O)N[C@H]1CSCc2cc3cc(c2)CSC[C@@H](NC(=O)[C@H](CCCNC(=N)N)NC(=O)[C@H](C)NC(=O)[C@@H]2CCCN2C(=O)[C@H](Cc2c[nH]c4ccccc24)NC(=O)[C@H](CO)NC1=O)C(=O)N[C@@H](CC(C)C)C(=O)N[C@@H](Cc1c[nH]cn1)C(=O)N[C@@H](CCC(N)=O)C(=O)N[C@@H](CC(=O)O)C(=O)N[C@@H](CC(C)C)C(=O)N[C@H](C(N)=O)CSC3
B4: Ac-(06-34-18) D-Pro3 (peptide)
peptide: Ac-CSW[dP]ARCLHQDLC-NH2
modifications: linker 1-7-13 via TBMB
SMILES: CC(=O)N[C@H]1CSCc2cc3cc(c2)CSC[C@H](NC(=O)[C@H](CCCNC(=N)N)NC(=O)[C@H](C)NC(=O)[C@H]2CCCN2C(=O)[C@H](Cc2c[nH]c4ccccc24)NC(=O)[C@H](CO)NC1=O)C(=O)N[C@@H](CC(C)C)C(=O)N[C@@H](Cc1c[nH]cn1)C(=O)N[C@@H](CCC(N)=O)C(=O)N[C@@H](CC(=O)O)C(=O)N[C@@H](CC(C)C)C(=O)N[C@H](C(N)=O)CSC3
B5: Ac-(06-34-18) NMeTrp2 (peptide)
peptide: Ac-CS[NMeW]PARCLHQDLC-NH2
modifications: linker 1-7-13 via TBMB
SMILES: CC(=O)N[C@H]1CSCc2cc3cc(c2)CSC[C@H](NC(=O)[C@H](CCCNC(=N)N)NC(=O)[C@H](C)NC(=O)[C@@H]2CCCN2C(=O)[C@H](Cc2c[nH]c4ccccc24)N(C)C(=O)[C@H](CO)NC1=O)C(=O)N[C@@H](CC(C)C)C(=O)N[C@@H](Cc1c[nH]cn1)C(=O)N[C@@H](CCC(N)=O)C(=O)N[C@@H](CC(=O)O)C(=O)N[C@@H](CC(C)C)C(=O)N[C@H](C(N)=O)CSC3
B6: Ac-(06-34-18) NMeCys2 (peptide)
peptide: Ac-CSWPAR[NMeC]LHQDLC-NH2
modifications: linker 1-7-13 via TBMB
SMILES: CC(=O)N[C@H]1CSCc2cc3cc(c2)CSC[C@@H](C(=O)N[C@@H](CC(C)C)C(=O)N[C@@H](Cc2c[nH]cn2)C(=O)N[C@@H](CCC(N)=O)C(=O)N[C@@H](CC(=O)O)C(=O)N[C@@H](CC(C)C)C(=O)N[C@H](C(N)=O)CSC3)N(C)C(=O)[C@H](CCCNC(=N)N)NC(=O)[C@H](C)NC(=O)[C@@H]2CCCN2C(=O)[C@H](Cc2c[nH]c3ccccc23)NC(=O)[C@H](CO)NC1=O
B7: Ac-(06-34-18) NMeAla4 (peptide)
peptide: Ac-CSWP[NMeA]RCLHQDLC-NH2
modifications: linker 1-7-13 via TBMB
SMILES: CC(=O)N[C@H]1CSCc2cc3cc(c2)CSC[C@H](NC(=O)[C@H](CCCNC(=N)N)NC(=O)[C@H](C)N(C)C(=O)[C@@H]2CCCN2C(=O)[C@H](Cc2c[nH]c4ccccc24)NC(=O)[C@H](CO)NC1=O)C(=O)N[C@@H](CC(C)C)C(=O)N[C@@H](Cc1c[nH]cn1)C(=O)N[C@@H](CCC(N)=O)C(=O)N[C@@H](CC(=O)O)C(=O)N[C@@H](CC(C)C)C(=O)N[C@H](C(N)=O)CSC3
B8: Ac-(06-34-18) Cit5 (peptide)
peptide: Ac-CSWPA[Cit]CLHQDLC-NH2
modifications: linker 1-7-13 via TBMB
SMILES: CC(=O)N[C@H]1CSCc2cc3cc(c2)CSC[C@H](NC(=O)[C@H](CCCNC(N)=O)NC(=O)[C@H](C)NC(=O)[C@@H]2CCCN2C(=O)[C@H](Cc2c[nH]c4ccccc24)NC(=O)[C@H](CO)NC1=O)C(=O)N[C@@H](CC(C)C)C(=O)N[C@@H](Cc1c[nH]cn1)C(=O)N[C@@H](CCC(N)=O)C(=O)N[C@@H](CC(=O)O)C(=O)N[C@@H](CC(C)C)C(=O)N[C@H](C(N)=O)CSC3
B9: Ac-(06-34-18) Δ Arg5 (peptide)
peptide: Ac-CSWPACLHQDLC-NH2
modifications: linker 1-6-12 via TBMB
SMILES: CC(=O)N[C@H]1CSCc2cc3cc(c2)CSC[C@H](NC(=O)[C@H](C)NC(=O)[C@@H]2CCCN2C(=O)[C@H](Cc2c[nH]c4ccccc24)NC(=O)[C@H](CO)NC1=O)C(=O)N[C@@H](CC(C)C)C(=O)N[C@@H](Cc1c[nH]cn1)C(=O)N[C@@H](CCC(N)=O)C(=O)N[C@@H](CC(=O)O)C(=O)N[C@@H](CC(C)C)C(=O)N[C@H](C(N)=O)CSC3
notes: Residue ranges derived from the stated deletion of Arg5
B10: Ac-(06-34-18) Agb5 (peptide)
peptide: Ac-CSWPA[Agb]CLHQDLC-NH2
modifications: linker 1-7-13 via TBMB
SMILES: CC(=O)N[C@H]1CSCc2cc3cc(c2)CSC[C@H](NC(=O)[C@H](CCNC(=N)N)NC(=O)[C@H](C)NC(=O)[C@@H]2CCCN2C(=O)[C@H](Cc2c[nH]c4ccccc24)NC(=O)[C@H](CO)NC1=O)C(=O)N[C@@H](CC(C)C)C(=O)N[C@@H](Cc1c[nH]cn1)C(=O)N[C@@H](CCC(N)=O)C(=O)N[C@@H](CC(=O)O)C(=O)N[C@@H](CC(C)C)C(=O)N[C@H](C(N)=O)CSC3
B11: Ac-(06-34-18) Agp5 (peptide)
peptide: Ac-CSWPA[Agp]CLHQDLC-NH2
modifications: linker 1-7-13 via TBMB
SMILES: CC(=O)N[C@H]1CSCc2cc3cc(c2)CSC[C@H](NC(=O)[C@H](CNC(=N)N)NC(=O)[C@H](C)NC(=O)[C@@H]2CCCN2C(=O)[C@H](Cc2c[nH]c4ccccc24)NC(=O)[C@H](CO)NC1=O)C(=O)N[C@@H](CC(C)C)C(=O)N[C@@H](Cc1c[nH]cn1)C(=O)N[C@@H](CCC(N)=O)C(=O)N[C@@H](CC(=O)O)C(=O)N[C@@H](CC(C)C)C(=O)N[C@H](C(N)=O)CSC3
B12: Ac-(06-34-18) βhomoArg5 (peptide)
peptide: Ac-CSWPA[β3hR]CLHQDLC-NH2
modifications: linker 1-7-13 via TBMB
SMILES: CC(=O)N[C@H]1CSCc2cc3cc(c2)CSC[C@H](NC(=O)C[C@H](CCCNC(=N)N)NC(=O)[C@H](C)NC(=O)[C@@H]2CCCN2C(=O)[C@H](Cc2c[nH]c4ccccc24)NC(=O)[C@H](CO)NC1=O)C(=O)N[C@@H](CC(C)C)C(=O)N[C@@H](Cc1c[nH]cn1)C(=O)N[C@@H](CCC(N)=O)C(=O)N[C@@H](CC(=O)O)C(=O)N[C@@H](CC(C)C)C(=O)N[C@H](C(N)=O)CSC3
B13: Ac-(06-34-18) Phe2 Aze3Tyr4 NMeArg5 (peptide)
peptide: Ac-CSF[Aze]Y[NMeR]CLHQDLC-NH2
modifications: linker 1-7-13 via TBMB
SMILES: CC(=O)N[C@H]1CSCc2cc3cc(c2)CSC[C@H](NC(=O)[C@H](CCCNC(=N)N)N(C)C(=O)[C@H](Cc2ccc(O)cc2)NC(=O)[C@@H]2CCN2C(=O)[C@H](Cc2ccccc2)NC(=O)[C@H](CO)NC1=O)C(=O)N[C@@H](CC(C)C)C(=O)N[C@@H](Cc1c[nH]cn1)C(=O)N[C@@H](CCC(N)=O)C(=O)N[C@@H](CC(=O)O)C(=O)N[C@@H](CC(C)C)C(=O)N[C@H](C(N)=O)CSC3

Target: T1, human plasma Kallikrein (human, UniProt P03952 20-638, limits assumed)
T1 construct: also called hPK; human PK
T1 sequence (P03952 20-638 limits assumed): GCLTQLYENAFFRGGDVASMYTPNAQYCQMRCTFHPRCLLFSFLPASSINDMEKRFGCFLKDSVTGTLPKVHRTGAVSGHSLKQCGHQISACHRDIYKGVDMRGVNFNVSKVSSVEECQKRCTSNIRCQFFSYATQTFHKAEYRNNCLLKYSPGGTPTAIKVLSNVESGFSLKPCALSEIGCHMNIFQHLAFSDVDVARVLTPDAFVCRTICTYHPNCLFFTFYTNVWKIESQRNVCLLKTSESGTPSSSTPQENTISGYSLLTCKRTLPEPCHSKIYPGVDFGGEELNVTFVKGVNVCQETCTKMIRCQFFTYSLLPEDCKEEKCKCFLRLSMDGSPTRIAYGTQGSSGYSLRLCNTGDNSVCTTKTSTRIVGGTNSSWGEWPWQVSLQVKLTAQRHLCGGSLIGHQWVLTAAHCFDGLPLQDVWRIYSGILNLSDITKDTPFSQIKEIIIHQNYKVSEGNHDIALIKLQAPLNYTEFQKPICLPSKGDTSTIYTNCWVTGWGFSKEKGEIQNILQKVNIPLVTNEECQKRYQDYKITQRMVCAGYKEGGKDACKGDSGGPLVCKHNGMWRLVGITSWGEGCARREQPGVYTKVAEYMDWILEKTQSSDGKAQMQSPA
Experiment: enzyme inhibition assay

Question: How did the “fold loss in potency against Ac-06-34-18(TMB)-NH2” value turn out when B1 was run?
Answer: Its value is 45000 fold.

Question: B2 was tested. Which “fold reduction of affinity against Ac-06-34-18(TMB)-NH2” value did it give?
Answer: The value was 7000 fold.

Target: T1, human plasma Kallikrein
Experiment: enzyme inhibition assay
Remark: another data set of the same source

Question: How did the Ki turn out when ACFKNCRVNCA (linker 2-6-10 via TBMB, also called PK119) [3B2] was run?
Answer: The Ki was 9 nM.

Question: For ACFKQCRVNCA (linker 2-6-10 via TBMB, also called PK118) [06-94], which Ki is on record?
Answer: The Ki was 0.7 nM.

Question: For ACFPKCRVACA (linker 2-6-10 via TBMB, also called PK122) [3A3], which Ki is on record?
Answer: Its Ki is 43.1 nM.

Question: With ACFDPCRVICA (linker 2-6-10 via TBMB, also called PK124) [3B9] as the binder, how does the Ki read?
Answer: The Ki was 90.8 nM.

Question: ACFNKCRVNCA (linker 2-6-10 via TBMB; not fully specified (N-terminus, C-terminus), also called PK121) [06-64 (3x3 peptide of Table 3)] was tested. Which Ki did it give?
Answer: Its Ki is 4.8 nM.

Question: Which Ki does the source give for ACFYKCRVNCA (linker 2-6-10 via TBMB; not fully specified (N-terminus, C-terminus), also called PK120) [06-71] here?
Answer: Its Ki is 15.2 nM.

Target: T1, human plasma Kallikrein
Experiment: enzyme inhibition assay
Remark: another data set of the same source

Question: Which Ki does the source give for B3 here?
Answer: The Ki was 234 nM.

Question: How did the Ki turn out when B1 was run?
Answer: Its Ki is 7560 nM.

Question: With B4 as the binder, how does the Ki read?
Answer: The Ki was 680 nM.

Question: For B2, which Ki is on record?
Answer: Its Ki is 1200 nM.

Target: T1, human plasma Kallikrein
Experiment: enzyme inhibition assay
Remark: another data set of the same source

Question: With B5 as the binder, how does the Ki read?
Answer: Its Ki is 228 nM.

Question: For B6, which Ki is on record?
Answer: The Ki was 418 nM.

Question: Which Ki does the source give for B7 here?
Answer: The Ki was 343 nM.

Target: T1, human plasma Kallikrein
Experiment: enzyme inhibition assay
Remark: another data set of the same source

Question: For B8, which Ki is on record?
Answer: Its Ki is 7860 nM.

Question: B9 was tested. Which Ki did it give?
Answer: Its Ki is > 100000 nM.

Question: B10 was tested. Which Ki did it give?
Answer: Its Ki is 83 nM.

Question: How did the Ki turn out when B11 was run?
Answer: The Ki was 1770 nM.

Question: For B12, which Ki is on record?
Answer: The Ki was 8.2 nM.

Target: T1, human plasma Kallikrein
Experiment: enzyme inhibition assay
Remark: another data set of the same source

Question: Ac-CSF[Aze]Y[hArg]CLHQDLC-NH2 (linker 1-7-13 via TBMB) [Ac-(06-34-18) Phe2 Aze3 Tyr4 HomoArg5] was tested. Which Ki did it give?
Answer: Its Ki is 0.12 nM.

Question: With Ac-CSF[Aze]Y[Phe(4-guanidino)]CLHQDLC-NH2 (linker 1-7-13 via TBMB) [Ac-(06-34-18) Phe2 Aze3Tyr4 4GuanPhe5] as the binder, how does the Ki read?
Answer: Its Ki is 0.36 nM.

Question: B13 was tested. Which Ki did it give?
Answer: The Ki was 0.97 nM.
